Values quoted from earlier work in publication PMC7905041.

Molecular target: CD40 ECD (Homo sapiens) (UniProt P25942)
Assay: SPR

Substance: CD40 CRD1/PLAD (from UniProt P25942)
- Kd: 600 nM
